Assay results from patent US20210024620A1.

Tests used:
[1] = molecular target: Human CD16a (FcγRIIIa V158) with C-terminal HPC4 tag (human) (UniProt P08637); assay: Biacore, FcγRIIIa V158 captured, relative to WT of the same backbone
[2] = molecular target: mouse FcRn (mouse) (UniProt Q61559); assay: Biacore, pH 7.4, steady state response
[3] = molecular target: biotinylated cynomolgus FcRn (cynomolgus) (UniProt Q8SPV9); assay: Biacore, pH 7.4, steady state response
[4] = molecular target: biotinylated human FcRn (human) (UniProt P55899); assay: Biacore, pH 7.4, steady state response
[5] = molecular target: Human CD16a (FcγRIIIa residues 17-208 with C-terminal HPC4 tag and valine at position 158) (human) (UniProt P08637); assay: Biacore SPR, HPC4-tagged FcγRIIIa-V158 captured by anti-HPC4, pH 7.4
[6] = molecular target: rat FcRn (rat) (UniProt P13599); assay: Biacore SPR, pH 7.4, 1000 nM antibody
[7] = molecular target: FcRn immobilised on the FcRn affinity column (biotinylated cynoFcRn in one experiment, biotinylated hFcRn in another); assay: FcRn affinity chromatography, linear pH gradient; species of the immobilised FcRn not given
[8] = molecular target: Human CD16a (FcγRIIIa V158) with C-terminal HPC4 tag (human) (UniProt P08637); assay: Biacore, FcγRIIIa V158 captured, steady-state fit, apparent KD
[9] = molecular target: rat FcRn (rat) (UniProt P13599); assay: Biacore SPR, pH 6.0
[10] = molecular target: rat FcRn (rat) (UniProt P13599); assay: Biacore, pH 7.4, steady state response
[11] = molecular target: rat FcRn (rat) (UniProt P13599); assay: Octet BLI, pH 6.0
[12] = molecular target: rat FcRn (rat) (UniProt P13599); assay: Biacore, pH 6.0
[13] = molecular target: rat FcRn (rat) (UniProt P13599); assay: Biacore, pH 6.0, apparent KD

rat FcRn (rat), sequence (P13599 23-298 limits assumed, chain 1 of 2): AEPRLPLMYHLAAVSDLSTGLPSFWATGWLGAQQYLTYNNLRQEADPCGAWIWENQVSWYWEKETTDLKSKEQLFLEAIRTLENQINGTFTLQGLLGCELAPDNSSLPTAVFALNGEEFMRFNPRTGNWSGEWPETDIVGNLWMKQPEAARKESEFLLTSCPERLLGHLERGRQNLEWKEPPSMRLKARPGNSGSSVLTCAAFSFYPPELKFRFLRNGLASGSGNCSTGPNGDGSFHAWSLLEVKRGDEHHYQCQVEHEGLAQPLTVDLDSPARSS
rat FcRn (rat), sequence (P07151 21-119 limits assumed, chain 2 of 2, further chain): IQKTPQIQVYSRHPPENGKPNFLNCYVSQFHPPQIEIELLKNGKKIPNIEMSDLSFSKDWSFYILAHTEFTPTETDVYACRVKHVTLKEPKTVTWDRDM
Human CD16a (FcγRIIIa V158) with C-terminal HPC4 tag (human), sequence (P08637 17-208 F176V): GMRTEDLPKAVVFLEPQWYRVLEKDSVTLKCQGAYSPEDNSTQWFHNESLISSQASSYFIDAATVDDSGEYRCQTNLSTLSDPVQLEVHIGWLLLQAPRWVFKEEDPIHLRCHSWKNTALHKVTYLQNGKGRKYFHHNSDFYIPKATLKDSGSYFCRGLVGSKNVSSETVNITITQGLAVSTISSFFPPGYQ
mouse FcRn (mouse), sequence (Q61559 22-297 limits assumed, chain 1 of 2): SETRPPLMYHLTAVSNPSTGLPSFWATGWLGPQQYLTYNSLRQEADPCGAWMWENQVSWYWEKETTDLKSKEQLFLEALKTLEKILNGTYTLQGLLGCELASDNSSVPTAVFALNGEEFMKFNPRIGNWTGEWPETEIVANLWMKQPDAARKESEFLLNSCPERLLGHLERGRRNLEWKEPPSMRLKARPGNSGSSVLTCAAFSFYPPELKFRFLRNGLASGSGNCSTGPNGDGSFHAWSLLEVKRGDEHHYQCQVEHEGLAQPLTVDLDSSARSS
mouse FcRn (mouse), sequence (P01887 21-119 limits assumed, chain 2 of 2, further chain): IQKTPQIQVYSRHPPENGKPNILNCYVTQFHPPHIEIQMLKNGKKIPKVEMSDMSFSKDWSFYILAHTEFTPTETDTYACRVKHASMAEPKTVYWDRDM
biotinylated human FcRn (human), sequence (P55899 24-297 limits assumed, chain 1 of 2): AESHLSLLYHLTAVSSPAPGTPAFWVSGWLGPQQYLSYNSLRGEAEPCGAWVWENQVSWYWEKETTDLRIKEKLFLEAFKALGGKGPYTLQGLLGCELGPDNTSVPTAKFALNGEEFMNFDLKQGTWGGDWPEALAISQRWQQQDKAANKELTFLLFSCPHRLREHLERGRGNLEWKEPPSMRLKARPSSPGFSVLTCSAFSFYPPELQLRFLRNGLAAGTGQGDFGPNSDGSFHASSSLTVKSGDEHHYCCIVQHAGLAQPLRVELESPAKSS
biotinylated human FcRn (human), sequence (P61769 21-119 limits assumed, chain 2 of 2, further chain): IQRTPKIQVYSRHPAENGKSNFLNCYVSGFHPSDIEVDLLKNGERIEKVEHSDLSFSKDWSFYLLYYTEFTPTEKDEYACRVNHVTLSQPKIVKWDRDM
biotinylated cynomolgus FcRn (cynomolgus), sequence (Q8SPV9 24-297 limits assumed, chain 1 of 2): as the sequence (P55899 24-297 limits assumed, chain 1 of 2) above, with N39D, E44Q, G99S, S189G, S190N, L217M, S269T counted along it
biotinylated cynomolgus FcRn (cynomolgus), sequence (Q8SPW0 21-119 limits assumed, chain 2 of 2, further chain): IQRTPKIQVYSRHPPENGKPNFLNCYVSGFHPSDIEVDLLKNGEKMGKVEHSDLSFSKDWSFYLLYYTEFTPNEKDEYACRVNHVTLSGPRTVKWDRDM
Human CD16a (FcγRIIIa residues 17-208 with C-terminal HPC4 tag and valine at position 158) (human), sequence (P08637 17-208 F176V): as the sequence (P08637 17-208 F176V) above

Substance: mAb2 LS (M428L/N434S) (antibody)
- FcγRIIIa V158 Affinity Fold Change (fold relative to WT) [1]: 1.23
- Steady State RU [2]: 285 RU
- Steady State RU [3]: 38 RU
- Steady State RU [4]: 44 RU

Substance: YTEKF benchmark (M252Y/S254T/T256E/H433K/N434F) hIgG1 (antibody)
- FcγRIIIa Binding Steady State RU [5]: 207 RU

Substance: mAb2 YD (M252Y/T256D) (antibody)
- FcγRIIIa V158 Affinity Fold Change (fold relative to WT) [1]: 0.58
- Steady State RU [2]: 394 RU
- Steady State RU [3]: 22 RU
- Steady State RU [4]: 27 RU

Substance: mAb1 AAA (T307A/E380A/N434A) (antibody)
- Steady State RU [6]: 23.6 RU
- FcRn affinity column elution pH [7]: 7.94 pH
- Kd [8]: 450 nM
- Kd [9]: 77 nM
- koff [9]: 0.0117 s⁻¹
- kon [9]: 157000 M⁻¹ s⁻¹
- Steady State RU [10]: 23.6 RU
- koff [11]: 0.00377 s⁻¹
- koff [12]: 0.0117 s⁻¹
- kon [12]: 157000 M⁻¹ s⁻¹
- Kd [13]: 77 nM
